Test results taken from article PMC12316982 (Nature Communications, 2025).
Residue numbers refer to the chain shown, from its start.

Legend:
Experiment in all cases: ELISA
Settings in all cases: both partners purified
[1] = biological target: stabilized neuraminidase protein (sNAp) of A/Michigan/45/2015 (MI15, H1N1) (Influenza A virus A/Michigan/45/2015 …, UniProt A0A0X9QTS2, stabilised)
[2] = biological target: T1, NA of the influenza B-Victoria lineage virus B/Colorado/06/2017 (B/Vic CO17) (Influenza B virus B/Colorado/06/2017 …, UniProt A0A1X9RX69, strain)
T1 construct: not shown: His6, N-terminal, kept

[3] = biological target: stabilized neuraminidase protein (sNAp) of A/New Caledonia/20/1999 (NC99, H1N1) (Influenza A virus A/New …, UniProt Q7TG96, stabilised)

Measured: binding result

B1: NCS.1 (human IgG1) (antibody, V domains shown)
VH: QVQLPESGPRLVKPSETLSLTCSVSGESISSGGYYWTWIRQHPGKGLEWIGNIFDTGSTHYSPSLKTRLTISIDTSKNQFYLRLNSATAADTAVYYCARVGYSLETDRPYYFGLDVWGQGTTVTVSS
VL: DIVMTQSPLSLPVTPGEPASISCRSSQSLLHSNGYTYLDWYLQKPGQSPQLLIYLASNRASGVPDRFSGSGSGTYFTLKISRVEAEDVGVYYCMQAVQTPWTFGQGTKVEIK
binds: all assays above

B2: NCS.1.3 (human IgG1) (antibody, V domains shown)
VH: B1 VH with P5Q, H60D, N85T, Y102F, F112L
VL: B1 VL with S10T, L55F, T99S
binds: all assays above

B3: NCS.1.1 (human IgG1) (antibody, V domains shown)
VH: B1 VH with P5Q, H60D, Y102F, F112L
VL: B1 VL with Y54S, L55F, A56T
binds: all assays above
